B1: Pep1-1 (peptide)
peptide: Ac-HSLFHPEDTG-biotin
B2: Pep1-2 (peptide)
peptide: Ac-SLFHPEDTGQ-biotin

Assays:
hybridoma 2.11 = assay: competition ELISA; signal of 2.11 on plate-bound Pep2-0 (competitor) with this free peptide; low = inhibited
hybridoma 2.03 = assay: competition ELISA; signal of 2.03 on plate-bound Pep2-0 (competitor) with this free peptide; low = inhibited

Binder	Maximum Reactivity (hybridoma 2.11)	Maximum Reactivity (hybridoma 2.03)
B1	1.48	0.382
B2	1.49	0.329
